Legend:
MrPPK = biological target: T1, MrPPK (Meiothermus ruber, UniProt M9XB82); assay: HPLC product quantification, Michaelis-Menten fit limited to data without substrate inhibition; format: biochemical; settings: sodium polyphosphate as phosphate donor (standard assay 5 mM), MgCl2 20 mM, tris pH 8.0, 40 °C; not a true KM; reduced activity above 14 mM substrate
T1 construct: gene K649_10090; expressed in E. coli SHuffle T7 Express; IMAC and desalting
T1 sequence (M9XB82 1-267): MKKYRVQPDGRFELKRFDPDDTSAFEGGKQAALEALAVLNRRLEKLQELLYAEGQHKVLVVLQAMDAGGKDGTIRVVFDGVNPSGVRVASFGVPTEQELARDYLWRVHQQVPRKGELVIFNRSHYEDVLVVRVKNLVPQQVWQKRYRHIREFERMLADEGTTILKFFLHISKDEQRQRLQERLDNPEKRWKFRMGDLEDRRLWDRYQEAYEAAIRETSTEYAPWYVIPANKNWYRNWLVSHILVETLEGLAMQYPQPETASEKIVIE
Text: HPLC product quantification, Michaelis-Menten fit limited to data without substrate inhibition on MrPPK

[1] = tested on: NC(=O)c1ncn([C@@H]2O[C@H](COP(=O)(O)O)[C@@H](O)[C@H]2O)c1N; assay: purified protein; settings: sodium polyphosphate as phosphate donor (standard assay 5 mM), MgCl2 20 mM, tris pH 8.0, 30 °C
[2] = substrate: NC(=O)c1[nH]cnc1N; assay: HPLC product quantification, Michaelis-Menten fit; format: biochemical, Escherichia coli; settings: co-substrate PRPP, MgCl2 20 mM, tris pH 8.0, standard assay 40 °C (kinetics under conditions optimized for each cascade), text b32 gives 6.2
Text: HPLC product quantification, Michaelis-Menten fit on EcAPT

Q: Which Km (MrPPK) does the source give for NC(=O)c1ncn([C@@H]2O[C@H](COP(=O)(O)O)[C@@H](O)[C@H]2O)c1N [ZMP] here?
A: > 8.6 mM

Q: Which results are given for AjPPK (Acinetobacter johnsonii)?
A: Km [1]: 8.2 ± 1.4 mM; Vmax [1]: 67 µmol/min/mg

B1: EcAPT (Escherichia coli K-12) (protein)
chain: MTATAQQLEYLKNSIKSIQDYPKPGILFRDVTSLLEDPKAYALSIDLLVERYKNAGITKVVGTEARGFLFGAPVALGLGVGFVPVRKPGKLPRETISETYDLEYGTDQLEIHVDAIKPGDKVLVVDDLLATGGTIEATVKLIRRLGGEVADAAFIINLFDLGGEQRLEKQGITSYSLVPFPGH
notes: expressed in E. coli BL21(DE3); IMAC and desalting
Q: For B1, which Km [2] is on record?
A: 6.3 ± 2.3 mM

Q: And the Vmax [2]?
A: 8.6 µmol/min/mg

Source: publication PMC9299608, “A Multi‐enzyme Cascade for the Biosynthesis of AICA Ribonucleoside Di‐ and Triphosphate” (Chembiochem, 2021)
